This is an account of results in paper doi:10.1101/2020.09.10.291369, “In vivo and in vitro mechanistic characterization of a clinically relevant PolγA mutation”.

This data set has as its target T1, POLγA A449T (UniProt P54099 26-1218, A450T).
T1 sequence: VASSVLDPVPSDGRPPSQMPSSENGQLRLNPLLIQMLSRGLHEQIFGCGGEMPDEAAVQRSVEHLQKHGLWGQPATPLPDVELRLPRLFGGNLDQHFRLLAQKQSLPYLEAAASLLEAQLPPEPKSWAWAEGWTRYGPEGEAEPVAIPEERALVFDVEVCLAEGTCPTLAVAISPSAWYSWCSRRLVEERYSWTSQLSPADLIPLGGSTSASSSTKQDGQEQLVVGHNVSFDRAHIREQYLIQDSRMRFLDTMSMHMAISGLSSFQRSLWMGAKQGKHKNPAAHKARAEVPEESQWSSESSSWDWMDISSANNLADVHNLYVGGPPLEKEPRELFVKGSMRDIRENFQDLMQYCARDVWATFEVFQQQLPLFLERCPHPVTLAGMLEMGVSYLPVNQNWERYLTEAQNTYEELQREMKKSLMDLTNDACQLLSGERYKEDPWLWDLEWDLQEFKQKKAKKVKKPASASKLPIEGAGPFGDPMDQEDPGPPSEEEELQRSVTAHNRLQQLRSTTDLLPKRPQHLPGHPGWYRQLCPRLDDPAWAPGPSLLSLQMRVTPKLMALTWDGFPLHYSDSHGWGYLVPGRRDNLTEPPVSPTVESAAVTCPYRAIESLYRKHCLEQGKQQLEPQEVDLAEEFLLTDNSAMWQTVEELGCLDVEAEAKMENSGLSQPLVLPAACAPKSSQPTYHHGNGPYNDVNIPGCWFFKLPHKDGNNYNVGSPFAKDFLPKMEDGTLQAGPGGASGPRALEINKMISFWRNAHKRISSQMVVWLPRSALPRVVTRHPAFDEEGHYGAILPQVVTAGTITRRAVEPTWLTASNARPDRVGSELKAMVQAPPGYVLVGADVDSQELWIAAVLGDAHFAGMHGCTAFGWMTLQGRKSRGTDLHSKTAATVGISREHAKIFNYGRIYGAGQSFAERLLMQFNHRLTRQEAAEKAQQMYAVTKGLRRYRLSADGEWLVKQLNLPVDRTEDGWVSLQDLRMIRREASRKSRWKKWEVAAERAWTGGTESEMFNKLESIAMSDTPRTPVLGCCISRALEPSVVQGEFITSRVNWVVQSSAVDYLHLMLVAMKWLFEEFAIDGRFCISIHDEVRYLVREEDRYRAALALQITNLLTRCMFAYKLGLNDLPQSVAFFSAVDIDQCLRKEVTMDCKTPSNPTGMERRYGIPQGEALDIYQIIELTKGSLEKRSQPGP
As to the kind of experiment: EMSA; POLγA alone; 10 mM MgCl2, ddGTP, dCTP, ATP; Kd in Suppl. Fig. 5A, value not in material; EMSA: 10 fmol DNA in 15 µl, 20 mM Tris-HCl pH 7.8, 1 mM DTT, 0.1 mg/ml BSA, 10 mM MgCl2, 10% glycerol, 2 mM ATP, 0.3 mM ddGTP, 3 mM dCTP, RT 10 min; 6% native PAGE 0.5x TBE. Conditions: protein: recombinant; label: 5'-32P on strand 2 (21-mer); 5' overhang 15 nt on strand 1; 21 bp duplex; primer-template. In general terms: A gel shift assay detects complexes by their altered migration in electrophoresis.

B1: 36-nt/21-nt primed template (mixed)
DNA 1: TTTTTTTTTTATCCGGGCTCCTCTAGACTCGACCGC
DNA 2: GCGGTCGAGTCTAGAGGAGCC
Turning to B1, the binding signal is approximately 3.4 fold weaker than WT.
